We go through 10 proteins from patent US20090099029.

This data set addresses T1, Bovine, dephosphorylated, Myelin Basic Protein (MBP), P02687.
T1 chain: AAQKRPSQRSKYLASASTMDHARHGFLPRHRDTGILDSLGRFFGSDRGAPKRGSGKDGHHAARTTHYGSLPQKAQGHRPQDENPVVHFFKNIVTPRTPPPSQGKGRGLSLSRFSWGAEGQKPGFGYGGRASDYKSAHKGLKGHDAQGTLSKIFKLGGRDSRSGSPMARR

B1: FLT1(VEGFR1) (protein)
chain: RKMKRSSSEIKTDYLSIIMDPDEVPLDEQCERLPYDASKWEFARERLKLGKSLGRGAFGKVVQASAFGIKKSPTCRTVAVKMLKEGATASEYKALMTELKILTHIGHHLNVVNLLGACTKQGGPLMVIVEYCKYGNLSNYLKSKRDLFFLNKDAALHMEPKKEKMEPGLEQGKKPRLDSVTSSESFASSGFQEDKSLSDVEEEEDSDGFYKEPITMEDLISYSFQVARGMEFLSSRKCIHRDLAARNILLSENNVVKICDFGLARDIYKNPDYVRKGDTRLPLKWMAPESIFDKIYSTKSDVWSYGVLLWEIFSLGGSPYPGVQMDEDFCSRLREGMRMRAPEYSTPEIYQIMLDCWHRDPKERPRFAELVEKLGDLLQANVQQDGKDYIPINAILTGNSGFTYSTPAFSEDFFKESISAPKFNSGSSDDVRYVNAFKFMSLERIKTFEELLPNATSMFDDYQGDSSTLLASPMLKRFTWTDSKPKASLKIDLRVTSKSKESGLSDVSRPSFCHSSCGHVSEGKRRFTYDHAELERKIACCSPPPDYNSVVLYSTPPI
B1: the “MBP Kinase Activity” value was “Strong”.

B2: TBK1 (protein)
chain: MQSTSNHLWLLSDILGQGATANVFRGRHKKTGDLFAIKVFNNISFLRPVDVQMREFEVLKKLNHKNIVKLFAIEEETTTRHKVLIMEFCPCGSLYTVLEEPSNAYGLPESEFLIVLRDVVGGMNHLRENGIVHRDIKPGNIMRVIGEDGQSVYKLTDFGAARELEDDEQFVSLYGTEEYLHPDMYERAVLRKDHQKKYGATVDLWSIGVTFYHAATGSLPFRPFEGPRRNKEVMYKIITGKPSGAISGVQKAENGPIDWSGDMPVSCSLSRGLQVLLTPVLANILEADQEKCWGFDQFFAETSDILHRMVIHVFSLQQMTAHKIYIHSYNTATIFHELVYKQTKIISSNQELIYEGRRLVLEPGRLAQHFPKTTEENPIFVVSREPLNTIGLIYEKISLPKVHPRYDLDGDASMAKAITGVVCYACRIASTLLLYQELMRKGIRWLIELIKDDYNETVHKKTEVVITLDFCIRNIEKTVKVYEKLMKINLEAAELGEISDIHTKLLRLSSSQGTIETSLQDIDSRLSPGGSLADAWAHQEGTHPKDRNVEKLQVLLNCMTEIYYQFKKDKAERRLAYNEEQIHKFDKQKLYYHATKAMTHFTDECVKKYEAFLNKSEEWIRKMLHLRKQLLSLTNQCFDIEEEVSKYQEYTNELQETLPQKMFTASSGIKHTMTPIYPSSNTLVEMTLGMKKLKEEMEGVVKELAENNHILERFGSLTMDGGLRNVDCL
For the protein B2, the “MBP Kinase Activity” value was “Strong”.

B3: FGFR3 (protein)
chain: RLRSPPKKGLGSPTVHKISRFPLKRQVSLESNASMSSNTPLVRIARLSSGEGPTLANVSELELPADPKWELSRARLTLGKPLGEGCFGQVVMAEAIGIDKDRAAKPVTVAVKMLKDDATDKDLSDLVSEMEMMKMIGKHKNIINLLGACTQGGPLYVLVEYAAKGNLREFLRARRPPGLDYSFDTCKPPEEQLTFKDLVSCAYQVARGMEYLASQKCIHRDLAARNVLVTEDNVMKIADFGLARDVHNLDYYKKTTNGRLPVKWMAPEALFDRVYTHQSDVWSFGVLLWEIFTLGGSPYPGIPVEELFKLLKEGHRMDKPANCTHDLYMIMRECWHAAPSQRPTFKQLVEDLDRVLTVTSTDEYLDLSAPFEQYSPGGQDTPSSSSSGDDSVFAHDLLPPAPPSSGGSRT
On to B3, for which the “MBP Kinase Activity” value is on record as “Strong”.

B4: TAOK3(JIK) (protein)
chain: MRKGVLKDPEIADLFYKDDPEELFIGLHEIGHGSFGAVYFATNAHTSEVVAIKKMSYSGKQTHEKWQDILKEVKFLRQLKHPNTIEYKGCYLKEHTAWLVMEYCLGSASDLLEVHKKPLQEVEIAAITHGALHGLAYLHSHALIHRDIKAGNILLTEPGQVKLADFGSASMASPANSFVGTPYWMAPEVILAMDEGQYDGKVDIWSLGITCIELAERKPPLFNMNAMSALYHIAQNDSPTLQSNEWTDSFRRFVDYCLQKIPQERPTSAELLRHDFVRRDRPLRVLIDLIQRTKDAVRELDNLQYRKMKKILFQETRNGPLNESQEDEEDSEHGTSLNREMDSLGSNHSIPSMSVSTGSQSSSVNSMQEVMDESSSELVMMHDDESTINSSSSVVHKKDHVFIRDEAGHGDPRPEPRPTQSVQSQALHYRNRERFATIKSASLVTRQIHEHEQENELREQMSGYKRMRRQHQKQLIALENKLKAEMDEHRLKLQKEVETHANNSSIELEKLAKKQVAIIEKEAKVAAADEKKFQQQILAQQKKDLTTFLESQKKQYKICKEKIKEEMNEDHSTPKKEKQERISKHKENLQHTQAEEEAHLLTQQRLYYDKNCRFFKRKIMIKRHEVEQQNIREELNKKRTQKEMEHAMLIRHDESTRELEYRQLHTLQKLRMDLIRLQHQTELENQLEYNKRRERELHRKHVMELRQQPKNLKAMEMQIKKQFQDTCKVQTKQYKALKNHQLEVTPKNEHKTILKTLKDEQTRKLAILAEQYEQSINEMMASQALRLDEAQEAECQALRLQLQQEMELLNAYQSKIKMQTEAQHERELQKLEQRVSLRRAHLEQKIEEELAALQKERSERIKNLLERQEREIETFDMESLRMGFGNLVTLDFPKEDYR
For the protein B4, the “MBP Kinase Activity” value is recorded as “Strong”.

B5: STK22B(TSSK2) (protein)
chain: MDDATVLRKKGYIVGINLGKGSYAKVKSAYSERLKFNVAVKIIDRKKTPTDFVERFLPREMDILATVNHGSIIKTYEIFETSDGRIYIIMELGVQGDLLEFIKCQGALHEDVARKMFRQLSSAVKYCHDLDIVHRDLKCENLLLDKDFNIKLSDFGFSKRCLRDSNGRIILSKTFCGSAAYAAPEVLQSIPYQPKVYDIWSLGVILYIMVCGSMPYDDSDIRKMLRIQKEHRVDFPRSKNLTCECKDLIYRMLQPDVSQRLHIDEILSHSWLQPPKPKATSSASFKREGEGKYRAECKLDTKTGLRPDHRPDHKLGAKTQHRLLVVPENENRMEDRLAETSRAKDHHISGAEVGKAST
As for B5, the “MBP Kinase Activity” value is on record as “Negative”.

B6: STK22D(TSSK1) (protein)
chain: MDDAAVLKRRGYLLGINLGEGSYAKVKSAYSERLKFNVAIKIIDRKKAPADFLEKFLPREIEILAMLNHCSIIKTYEIFETSHGKVYIVMELAVQGDLLELIKTRGALHEDEARKKFHQLSLAIKYCHDLDVVHRDLKCDNLLLDKDFNIKLSDFSFSKRCLRDDSGRMALSKTFCGSPAYAAPEVLQGIPYQPKVYDIWSLGVILYIMVCGSMPYDDSNIKKMLRIQKEHRVNFPRSKHLTGECKDLIYHMLQPDVNRRLHIDEILSHCWMQPKARGSPSVAINKEGESSRGTEPLWTPEPGSDKKSATKLEPEGEAQPQAQPETKPEGTAMQMSRQSEILGFPSKPSTMETEEGPPQQPPETRAQ
On to B6, for which the “MBP Kinase Activity” value was “Strong”.

B7: TTK (protein)
chain: MESEDLSGRELTIDSIMNKVRDIKNKFKNEDLTDELSLNKISADTTDNSGTVNQIMMMANNPEDWLSLLLKLEKNSVPLSDALLNKLIGRYSQAIEALPPDKYGQNESFARIQVRFAELKAIQEPDDARDYFQMARANCKKFAFVHISFAQFELSQGNVKKSKQLLQKAVERGAVPLEMLEIALRNLNLQKKQLLSEEEKKNLSASTVLTAQESFSGSLGHLQNRNNSCDSRGQTTKARFLYGENMPPQDAEIGYRNSLRQTNKTKQSCPFGRVPVNLLNSPDCDVKTDDSVVPCFMKRQTSRSECRDLVVPGSKPSGNDSCELRNLKSVQNSHFKEPLVSDEKSSELIITDSITLKNKTESSLLAKLEETKEYQEPEVPESNQKQWQSKRKSECINQNPAASSNHWQIPELARKVNTEQKHTTFEQPVFSVSKQSPPISTSKWFDPKSICKTPSSNTLDDYMSCFRTPVVKNDFPPACQLSTPYGQPACFQQQQHQILATPLQNLQVLASSSANECISVKGRIYSILKQIGSGGSSKVFQVLNEKKQIYAIKYVNLEEADNQTLDSYRNEIAYLNKLQQHSDKIIRLYDYEITDQYIYMVMECGNIDLNSWLKKKKSIDPWERKSYWKNMLEAVHTIHQHGIVHSDLKPANFLIVDGMLKLIDFGIANQMQPDTTSVVKDSQVGTVNYMPPEAIKDMSSSRENGKSKSKISPKSDVWSLGCILYYMTYGKTPFQQIINQISKLHAIIDPNHEIEFPDIPEKDLQDVLKCCLKRDPKQRISIPELLAHPYVQIQTHPVNQMAKGTTEEMKYVLGQLVGLNSPNSILKAAKTLYEHYSGGESHNSSSSKTFEKKRGKK
B7: the “MBP Kinase Activity” value is recorded as “Negative”.

B8: TAOK2(TAO1) (protein)
chain: MPAGGRAGSLKDPDVAELFFKDDPEKLFSDLREIGHGSFGAVYFARDVRNSEVVAIKKMSYSGKQSNEKWQDIIKEVRFLQKLRHPNTIQYRGCYLREHTAWLVMEYCLGSASDLLEVHKKPLQEVEIAAVTHGALQGLAYLHSHNMIHRDVKAGNILLSEPGLVKLGDFGSASIMAPANSFVGTPYWMAPEVILAMDEGQYDGKVDVWSLGITCIELAERKPPLFNMNAMSALYHIAQNESPVLQSGHWSEYFRNFVDSCLQKIPQDRPTSEVLLKHRFVLRERPPTVIMDLIQRTKDAVRELDNLQYRKMKK
Regarding B8, the “MBP Kinase Activity” value is listed as “Strong”.

B9: FGFR4 (protein)
chain: RGQALHGRHPRPPATVQKLSRFPLARQFSLESGSSGKSSSSLVRGVRLSSSGPALLAGLVSLDLPLDPLWEFPRDRLVLGKPLGEGCFGQVVRAEAFGMDPARPDQASTVAVKMLKDNASDKDLADLVSEMEVMKLIGRHKNIINLLGVCTQEGPLYVIVECAAKGNLREFLRARRPPGPDLSPDGPRSSEGPLSFPVLVSCAYQVARGMQYLESRKCIHRDLAARNVLVTEDNVMKIADFGLARGVHHIDYYKKTSNGRLPVKWMAPEALFDRVYTHQSDVWSFGILLWEIFTLGGSPYPGIPVEELFSLLREGHRMDRPPHCPPELYGLMRECWHAAPSQRPTFKQLVEALDKVLLAVSEEYLDLRLTFGPYSPSGGDASSTCSSSDSVFSHDPLPLGSSSFPFGSGVQT
B9: the “MBP Kinase Activity” value was “Strong”.

B10: FGFR2 (protein)
chain: RMKNTTKKPDFSSQPAVHKLTKRIPLRRQVTVSAESSSSMNSNTPLVRITTRLSSTADTPMLAGVSEYELPEDPKWEFPRDKLTLGKPLGEGCFGQVVMAEAVGIDKDKPKEAVTVAVKMLKDDATEKDLSDLVSEMEMMKMIGKHKNIINLLGACTQDGPLYVIVEYASKGNLREYLRARRPPGMEYSYDINRVPEEQMTFKDLVSCTYQLARGMEYLASQKCIHRDLAARNVLVTENNVMKIADFGLARDINNIDYYKKTTNGRLPVKWMAPEALFDRVYTHQSDVWSFGVLMWEIFTLGGSPYPGIPVEELFKLLKEGHRMDKPANCTNELYMMMRDCWHAVPSQRPTFKQLVEDLDRILTLTTNEEYLDLSQPLEQYSPSYPDTRSSCSSGDDSVFSPDPMPYEPCLPQYPHINGSVKT
Take B10: the “MBP Kinase Activity” value is “Strong”.
